In test [1] the target is uniformly 2H,13C,15N-labelled proliferating cell nuclear antigen (PCNA), used in NMR (human, UniProt P12004 1-259, uniformly 2H,13C,15N enriched). The test is described as follows: NMR titration.
Test [2] concerns PCNA. As to conditions: PIP or APIM mutated; local ultraviolet irradiation; ref [5]; cited from earlier work.

The values that follow come from article PMC10727010 (Structure (London, England : 1993), 2023).

Sequence of uniformly 2H,13C,15N-labelled proliferating cell nuclear antigen (PCNA), used in NMR (P12004 1-259): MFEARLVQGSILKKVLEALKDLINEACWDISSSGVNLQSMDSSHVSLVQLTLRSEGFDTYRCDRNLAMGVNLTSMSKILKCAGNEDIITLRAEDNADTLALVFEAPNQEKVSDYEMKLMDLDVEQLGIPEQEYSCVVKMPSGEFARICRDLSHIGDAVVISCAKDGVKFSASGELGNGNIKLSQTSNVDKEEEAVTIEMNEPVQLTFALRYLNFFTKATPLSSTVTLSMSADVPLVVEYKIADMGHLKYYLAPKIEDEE

B1: FBH1PIP peptide (residues 55-68 of F-box DNA helicase 1) (peptide)
peptide: GSQRCIPEFFLAGK
B1 returned a Kd in test [1] of 7.8 µM. This lies in the single-digit micromolar range.

B2: F-box DNA helicase 1 (protein, UniProt Q8NFZ0 1-1043, looked up)
F-box DNA helicase 1: MRRFKRKHLTAIDCQHLARSHLAVTQPFGQRWTNRDPNHGLYPKPRTKRGSRGQGSQRCIPEFFLAGKQPCTNDMAKSNSVGQDSCQDSEGDMIFPAESSCALPQEGSAGPGSPGSAPPSRKRSWSSEEESNQATGTSRWDGVSKKAPRHHLSVPCTRPREARQEAEDSTSRLSAESGETDQDAGDVGPDPIPDSYYGLLGTLPCQEALSHICSLPSEVLRHVFAFLPVEDLYWNLSLVCHLWREIISDPLFIPWKKLYHRYLMNEEQAVSKVDGILSNCGIEKESDLCVLNLIRYTATTKCSPSVDPERVLWSLRDHPLLPEAEACVRQHLPDLYAAAGGVNIWALVAAVVLLSSSVNDIQRLLFCLRRPSSTVTMPDVTETLYCIAVLLYAMREKGINISNRIHYNIFYCLYLQENSCTQATKVKEEPSVWPGKKTIQLTHEQQLILNHKMEPLQVVKIMAFAGTGKTSTLVKYAEKWSQSRFLYVTFNKSIAKQAERVFPSNVICKTFHSMAYGHIGRKYQSKKKLNLFKLTPFMVNSVLAEGKGGFIRAKLVCKTLENFFASADEELTIDHVPIWCKNSQGQRVMVEQSEKLNGVLEASRLWDNMRKLGECTEEAHQMTHDGYLKLWQLSKPSLASFDAIFVDEAQDCTPAIMNIVLSQPCGKIFVGDPHQQIYTFRGAVNALFTVPHTHVFYLTQSFRFGVEIAYVGATILDVCKRVRKKTLVGGNHQSGIRGDAKGQVALLSRTNANVFDEAVRVTEGEFPSRIHLIGGIKSFGLDRIIDIWILLQPEEERRKQNLVIKDKFIRRWVHKEGFSGFKRYVTAAEDKELEAKIAVVEKYNIRIPELVQRIEKCHIEDLDFAEYILGTVHKAKGLEFDTVHVLDDFVKVPCARHNLPQLPHFRVESFSEDEWNLLYVAVTRAKKRLIMTKSLENILTLAGEYFLQAELTSNVLKTGVVRCCVGQCNNAIPVDTVLTMKKLPITYSNRKENKGGYLCHSCAEQRIGPLAFLTASPEQVRAMERTVENIVLPRHEALLFLVF
Regarding B2, in test [2], the “co-localization of PCNA and FBH1 on motif mutation” value is “reduced co-localization of PCNA and FBH1 when either PIP or APIM is mutated”.

B3: FBH1APIM peptide (residues 805-815 of F-box DNA helicase 1) (peptide)
peptide: KDKFIRRWVHK
As to B3, binding in test [1] was characterised by a dissociation constant (Kd) of 276 µM.
